# Measurements reported in US20070243194A1 (Biogen, published 2007).
# B1: M13-C06.G4.P.agly (antibody, human IgG4 S228P, kappa, V domains shown)
# VH: EVQLLESGGGLVQPGGSLRLSCAASGFTFSIYRMQWVRQAPGKGLEWVSGISPSGGTTWYADSVKGRFTISRDNSKNTLYLQMNSLRAEDTAVYYCARWSGGSGYAFDIWGQGTMVTVSS
# VL: DIQMTQSPLSLSASVGDRVTITCQASRDIRNYLNWYQQKPGKAPKLLIYDASSLQTGVPSRFGGSGSGTDFSFTIGSLQPEDIATYYCQQFDSLPHTFGQGTKLEIKR
# B2: M14-C03.G4.P.agly (antibody, human IgG4 S228P, kappa, V domains shown)
# VH: EVQLLESGGGLVQPGGSLRLSCAASGFTFSKYMMSWVRQAPGKGLEWVSYISPSGGLTWYADSVKGRFTISRDNSKNTLYLQMNSLRAEDTAVYYCARDGARGYGMDVWGQGTTVTVSS
# VL: DIQMTQSPATLSLSPGERATLSCRASQSVSSYLAWYQQKPGQAPRLLIYDASNRATGIPARFSGSGSGTDFTLTISSLEPEDFAVYYCQQRSNWPPEVTFGPGTKVDIKR
# B3: M14-G11.G4.P (antibody, V domains shown)
# VH: EVQLLESGGGLVQPGGSLRLSCAASGFTFSNYPMYWVRQAPGKGLEWVSRISSSGGRTVYADSVKGRFTISRDNSKNTLYLQMNSLRAEDTAVYYCARDRWSRSAAEYGLGGYWGQGTLVTVSS
# VL: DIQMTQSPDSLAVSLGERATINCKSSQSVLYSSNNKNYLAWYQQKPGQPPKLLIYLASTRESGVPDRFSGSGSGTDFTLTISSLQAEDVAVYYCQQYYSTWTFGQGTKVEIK
# Target: human IGF-1R on cells (human, UniProt P08069 31-740; P08069 741-1367)
# Test: cell-based or functional assay
# Sequence of human IGF-1R on cells (P08069 31-740, chain 1 of 2): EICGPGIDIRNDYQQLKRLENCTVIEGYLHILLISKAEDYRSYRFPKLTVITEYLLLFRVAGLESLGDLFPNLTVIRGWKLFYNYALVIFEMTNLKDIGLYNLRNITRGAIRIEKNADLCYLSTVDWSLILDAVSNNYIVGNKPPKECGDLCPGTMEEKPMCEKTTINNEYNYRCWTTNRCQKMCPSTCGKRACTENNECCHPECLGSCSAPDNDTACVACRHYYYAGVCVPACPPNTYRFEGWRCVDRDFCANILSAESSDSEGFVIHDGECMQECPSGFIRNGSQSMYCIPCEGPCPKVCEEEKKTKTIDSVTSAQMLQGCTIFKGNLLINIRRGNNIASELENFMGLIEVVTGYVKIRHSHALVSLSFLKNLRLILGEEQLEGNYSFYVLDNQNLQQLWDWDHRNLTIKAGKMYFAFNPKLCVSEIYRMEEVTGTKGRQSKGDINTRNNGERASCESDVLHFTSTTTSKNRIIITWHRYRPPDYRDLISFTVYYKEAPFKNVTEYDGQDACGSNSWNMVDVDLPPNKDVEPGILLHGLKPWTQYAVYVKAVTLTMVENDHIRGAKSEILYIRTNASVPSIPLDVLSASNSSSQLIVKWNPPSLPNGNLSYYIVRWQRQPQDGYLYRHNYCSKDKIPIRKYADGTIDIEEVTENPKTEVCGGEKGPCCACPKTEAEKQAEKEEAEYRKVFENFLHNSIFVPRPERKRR
# Sequence of human IGF-1R on cells (P08069 741-1367, chain 2 of 2): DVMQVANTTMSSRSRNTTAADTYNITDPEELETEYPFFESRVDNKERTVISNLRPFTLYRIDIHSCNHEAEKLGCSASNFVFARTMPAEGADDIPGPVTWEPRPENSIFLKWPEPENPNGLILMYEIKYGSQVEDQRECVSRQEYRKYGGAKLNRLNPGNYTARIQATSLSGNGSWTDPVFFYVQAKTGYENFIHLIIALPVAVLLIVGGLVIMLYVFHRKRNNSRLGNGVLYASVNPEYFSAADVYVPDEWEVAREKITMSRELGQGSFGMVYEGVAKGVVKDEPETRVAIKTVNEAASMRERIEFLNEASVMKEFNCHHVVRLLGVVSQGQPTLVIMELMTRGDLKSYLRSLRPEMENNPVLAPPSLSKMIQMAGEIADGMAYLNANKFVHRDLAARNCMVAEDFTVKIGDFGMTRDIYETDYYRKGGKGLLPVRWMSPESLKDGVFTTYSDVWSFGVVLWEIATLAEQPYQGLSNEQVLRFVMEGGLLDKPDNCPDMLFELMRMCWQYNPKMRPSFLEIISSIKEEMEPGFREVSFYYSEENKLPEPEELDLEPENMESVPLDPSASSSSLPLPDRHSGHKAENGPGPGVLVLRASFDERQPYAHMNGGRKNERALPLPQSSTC
row,"inhibition of IGF-1 and IGF-2 mediated IGF-1R receptor phosphorylation, EC50 [nM]",Binder
1,< 1,B1
2,< 1,B2
3,< 1,B3
